From the DeepSol protein solubility set

Assay: soluble on expression in E. coli; label from the status in PepcDB or PDB records

Row | Sequence | soluble on expression in E. coli
1 | MGSSHHHHHHSSGLVPRGSHMEEEMMILGVDGGSTKTLAIVFDERSERIMGVGISGPSNFTNAPRETAESNISDAVRKACSEAGTDLDGIGIRVFGLAGIGDSREATELGKDIVRSIVGHADVYSDGLGAYKFANLNDDGVVFAPGTGSVGFIKNGSDPERFGGWGWFIGDEASASWMAKQAILFAEREHDGIAETGFLDVVRRYFGMDLYETVYAISKEKIAKRVVAALAPQVSAMARSGNRYAISIFEESSSYIADLLNAKSRIFGRSGKYSVLGGTMLAGDFYRDMIRKKSSVDVSIYYGYQVAIGDVLIGIEKKGSISVDLRNKMIDQLNSILENKKEDIKKFLFLDSVPTS | soluble
2 | MGFDSPRGRGGGGFRGGRGGGSGFTPRGGGGGFRGGDRGRSPGGFRGGDRGRSSSGFRGGDRGRSPGGFRGDREGGFSPRGRGGGFRGGDRGGFRGGDRGGSPWRGGDRGNFRGGDRGGSPWRGGDRGVANRGRGDFSGGSRGGNKFSPRGGGRGGFTPRGRGGNDFSPRGGRGNFQSRGGGSRVGFSDKRKQYDSDGDDDEEEEVPKKKLATGTPFAKQTKPVEDDSGEDEEDEEESDEEPQPPKKTAKSAIATAAEDSDDDEEDDDEEEEESDDDAPQVKKSVAVEEDEEDEEDEEEIEMDEEDEEEEEDEEETEPVAKTPAVKSSLKSVDSTKGKQVNLSKVATPTTVDKKAPATPHPAKTSKNAAGDVPKLNFDDDSDEEDEEDEEVEEEDEEEEEEEEDVPAKKAPVLKQSLSQIAQAIEEDSDDEDEDEEEEEDEEDEEEEEDTTNVPLIKSKADLLKQIAANRAAASAAQDSDEDEDEEDEEDVEEEDEEEEEEEDIPAVKPKVTEKQGGVKRKLDEPTVASKQVKSDGKSIISEEERRRQDRDSRSLFIKEIAKKAKDAEITGLVTGLDSFRRKKNSNFGWLVFNTVADCKKAHDVLSKSKIQGKALYVDFCLSESKAPKEHGVRPINPLQLFINALPGTCNNTDLKNIFRSSTDIKILHASGQPNSKKRAFITFGTVEDAQAAFAKSNGLKVNNHLVDVFYARHQETKVDVKPKKAATPAVQKKIVPKVAADSSGDDSEEVASSDEGIQEVEEEQPKQKKLVKKVEPKTIPRVQQKKPQFKKTGFKGKK | not soluble
3 | MGSDKIHHHHHHMSKRMIITVGDARVGKSTVIKLLLEIFAQQGKRIKVYNQESFPVFQAYEHIATIKKFNLSNDDADAITDDLNHPELDVMIVDMPGQDIEKVIQYIESASLFEVVVKFGWNLTFLQPISHRKDCIYYLNAIIQNATNNANYVVVKNYHFAPEFREYEEKMRKKLLIIGGTEVELMALHRNHYQAMEKADKPYSQVCQDLSIILFWRSFIFQWIKKFHHSVMNNHLAIKYLGLD | not soluble
4 | MNNTEPWKKYVPETVSLYHVDYRENLNEREDLQEQCIRNNNMERLYETVMECYAEQEAESLLKILGEIKEKMAEEKRQEEFEEHREEITDLILSRSDTDPAEELIKNSAAVNMYYSPGEKIEERIGKASKTMSCYKVRRALKLKKGQFDTLIEELVDNATYGGELRIYFNAGFNELVTNDNGKDFRTIRFHRDVIVAVANSFNGSGYHISLPLDITFPFVRDRLFVDSQVRYSYATEVCGMCRDWCDSTSWETEYKTVRNTSRNRQKEKTLSTN | not soluble
5 | INFPILDEPLVLSNATILTIEDVSVYSSLVKHFYQYDVDEHLKLFDDKQKSLKATELMLVTDILGYDVNSAPILKLIHGDLENQFNEKPEVKSMVEKLAATITELIAFECLENELDLEYDEIKILELIKALGVKIETQSDTIFEKCFEIIQVYHYLTKKNLLVFVNSGAYLTKDEVIKLCEYINLMQKSVLFLEPRRLYDLPQYVIDKDYFLIGEN | not soluble
6 | MRWWLCILVLLLAVPAQALLMPGTRVVEEHHANPFEIDVSSIDNLGDIPVDDPSDGINWSFLYLPYPNCTSGTGDATFIAVSRGSSNNILIYLEGGGACSDFYTCGMGQYVDHASCNATPTATVTTLNPNPWVVSYHYRYGIFDRANPDNPFRDWTIVFVPYSTGDVHWGNRVVKYCYYNPYNLSQVDCSINFTVHHVGFVNAITAIRWAAEQGDFDKVVIAGSSAGGYGTIVHSFYAREIFGKPILAIDDAGPGLNVNQSNFTIQMLFGIETLNETWGAYDNLPDDAQDFLGDRDPIFFVDYFLDHYPDSRFALYEDQMDYTIGVFFNGYTEEQFRDLLLNKACEIKAMHRHNFFRYLPLGTEHTILAYPWFYEKNIHNYRVYEWVWDLIKGKKRDAVELDGVRGIYLACPPGIFAKLEHHHHHH | not soluble
7 | MSGVKIAFIRHHDLWIKVDGKEKQLTKGEYITGPKWSYDGEWLAYVKGEKQNTLELYRLKDGKKVTPFHSEVSNYQWSPTENIIAFIFTGTLHTFKVEKKNADFENVSAGVGDYAWYPNGKKFLVSSEAHLLPTGWTGAQLYEVQKDAHMNPHKMKHLYALPNEHDDFLALVASGFQWSPDQKWISFLAVPTASWSADSNTLCLVRADGSRFEKVDQMLLNTQWFKWAPANNILAYIEGSGRVALENKHLKVKELPALQQNTFTPKGYVDWDFTWKNDNVIIVSRAKEAGIETPPEKRPLPSLYEIDSTSDEQHRITKPPHRQGDYHPLFMNKSNQLIWIRSDRKKADVWLAHKDGKHEMKWIENIDVPLEHHHHHH | not soluble
8 | MRLLVAFAVIYFISISPVCAENTASTINIPTPAIESPLASKSLLLDISLIGQEKLVTVGQHGHILLSNDGKKWQQANVPVQVTLTNVFFLNEQLGWAVGHDATILHSQDGGLNWQVQQYLPLLEKPLFDIYFKNPQQGIAVGAYGQVFRTNDGGSTWQNEFHQEILLADDVEYLNELKAEDEAAYLDEITFILPHFNRLVQDGGSLFLLGETGLLAKSDDFGLTWQQFDNFYQGSFFSLARTKTGNVLVAGLRGHVFRSLNHGSQWDEVPTNTTALLNDIVFANDERIFILGNNGMLLISTDDGESFSKIPQQDGKTLIAGVWFKGQLIAVSDVGIKVVDLSQELEHHHHHH | not soluble
9 | MISSKLKLQSLTSKDLSAILELDQACFGGLWTMEGYQRELDSPNSDLLGLFSPSSPIKLLGMGCFWSIVGEAHITILAVHPQYHHQGLGQALLYFLLRTASDRGLERATLEVRASNEAAISLYQKFGFQTAGRRRAYYQDNGEDALILWLPDLQYPQFQETLAHWKTIIQDGLQKYSWSIVNSR | soluble
10 | GPLGSLVNVIRRESGNPDLLELLMDLNCYTLEVTEGYLKKVNVTEVNGDNVLGPIHVITTVVSSLVRNGLLIQSSKFISKVLLTVESIVMSLPKDETMLGGIFWLSNLSRLPAFAANQKTLYEANGGDEKDKLTLIYLNDLENETLKVFDKIYSTWLVKFMKHASAHIEIFDMVLNEKLFKNSGDEKFAKLFTFLNEFDAVLCKFQVVDSMHTKIFNDTLKYLNVMLFNDLITKCPALNWKYGYEVDRNIERLVSWFEPRIEDVRPNLIQIIQAVKILQLKISNLNEFKLLFDFWYALNPAQIQAILLKYKPANKGEAGVPNEILNYLANVIKRENLSLPGKMEIMLSAQFDSAKNHLRYDTSAITQNSNTEGLATVSKIIKLDRK | soluble
11 | MSLADKRKHRFSVRYWLWRHTSLKRVAFCGRVAASAVASVGVRCSDGRAGFAGLQSCGSVWACPVCNAKIMARRGLELGAAVETWTKHGGRVAFMTFTVRHSRKDSLTAVWDGVASGWRRVTSGKGWTSDQLRHGVEGFVRVVEVTHGRNGWHVHLHVLVFLVGDFGDALALHRSMFGRWERGVLAAGLGTPLARAQDVQQMSAATGLDHLARYLSKAQFQGKIGHELTNSQSKTARSALSTRSTWEVLGDAANGLAKEVGLWFEWEKGSRGRRQIGWSAGLRDRLGLMVEESDDVIAAEEVGSVADTVALITGDGWRRLVGQQKLYECLRSCELGGQAGLARWLQEHGIEHELVEVDEGHHHHHH | soluble
12 | MGSDKIHHHHHHMIYYGTMFDHKVRFSIVRMREVVEEARNRHALSYLATVVLGRALIGAALVTPWLAEKERWTLDIEGNGPIRRVVAQSTSEFTVRGYVANPKVELPLNEKGKFDVAGAIGQGVLRVVRDLGLKTPFVSQVPLVSGEIAEDLAYYFAVSEQIPSAFSIGVLVDSDGVKIAGGFAVQIIDRTLEQEKVEMIEKNIKNLPSISKLFQEAEPLDVLERIFGEKVGFVETAEIKYKCDCNREKAKNALLVLDKKELEDMRKEGKGEVVCKWCNTRYVFSEEELEELLKFKVDDSGS | soluble
13 | MTGSTAGKVLVVGALGVVGRAALEHFGQRPGLARVGLSRRAPDFAPEATWISADLRDAQATRAALAAHGDATHVVYAALNEQPDLLKGWRDSGNVDLNTRMLRNTLDALREAPLRHVTLLQGTKAYGVHTGRPMPVPARETDAVRDHANFYFDQQDLLAERAAAQGFAWTIFRPQIVLGVALGSAMNPVATLGAYAALSREAGQPLRYPGHPHLLTECTDARLIARAIAWAWDEPRAHGEAFNIANGDVVLWQPVFERLAALFGMPLGEPVDTRMREAMPEQAERWRAIAERERLAVPQLRDLIGLSWQYADATWAARHPLPVPPLVSTIKLRQAGFGDCIDTQECIVEHLREMQRLRYLPRLEHHHHHH | not soluble
14 | MGSDKIHHHHHHMTDVAKFGISRLDELLGGGLDRYTENLIIGRSGIGKTILAAHWAAEGARNDETVVYLSTTMNKKNCKAYLGRFPFMEDVYDKIKWRFIRVDPKFVLPLTREKIVEGLRATFGMDGKDIDRVVFDSCTDLELALADPVLYRRALTYMSDLSYDYEITSLWIEEAPMQGDWSSTKNIVDSVIFLNLLRTQEGYQRAMRILKKYRTRVPLEWIPYEITDEGVVIKDGYIVKRSYDYEYKRG | not soluble
15 | MEKLAIGVDVGTTQAKAVAFQANGTVVASSYVRYPLIQETEGMAEQDPETLFQAVVNCIRTVTQQVKNQPIGLISFASAMHGLIAMDAQGRPLTQVITWADTRASDYAEALKETPAAQLFYQLTGMPVHPMAPLYKIRWLQENQPAVAQSAAKFIGIKDYIFYRFFGEYWTDYSSASGMGLFNIHTRQWETSILAYLSIEEEQLPKVAPSTFIFPALAPSWQEMLGVEEETVLVLGGADGPLSNLGLGALGMGVATLTVGTSGALRYIVEEPFLHPQGETFCFALDEQHWVIGGASSNGAVALDWASQTIFAEERQQAIQNGTNLYDPIMAKIATVPAGANGLLFHPYLLGERAPLWNAEASASFIGLRKNHHAGHLARAVVEGICFNLKTILEDLKQLGGPVQEIRATGGFADSPVFRQIMADVLGETLSFTDSTEASALGAVLLGWQGLGQLPNLQAAAQQVLIHETVTPRADQLLVYQELYPVFQETQQVLAQSYQKLAEFRK | not soluble
16 | MGSDKIHHHHHHMFKSTDNYIASNELTLAVNAAIALEKPLLIKGEPGTGKTQLAEELARSLNCKLYQWHIKSTTKAQQGLYEYDAVSRLRDSQLGDARVHDIGNYIVKGKLWQAFEEDQRSILLIDEIDKADIEFPNDLLQELDKMEFYVYETQQVIKAKQRPIIIITSNNEKELPDAFLRRCFFHYIKFPTKDEMAKIIDVHHPNVKQDLLQQALEVFFDLRDVNGIKKKPSTSELIDWLKLLISDDISQDTLLDKKSDIIPLFGALLKNEQDVSLIEKLAFMSRRNR | not soluble
17 | MLRDLRETDVKAICDINQEALGYTFSPEETASQLARLSQDSHHFLLGYEDAANHVLLGYVHAEVYESLYSKAGFNILALAVSPQAQGQGIGKSLLQGLEEEAKRCGYGFIRLNSANHRLGAHAFYEKVGYTCDKMQKRFIRIC | not soluble
18 | MSLNTWNELTVHVNREAEEAVSNLLIETGSQGVAISDSADYLGQEDRFGELYPEVEQSDMIAITAYYPDTLDIEAVKADLADRLANFEGFGLATGSVNLDSQELVEEDWADNWKKYYEPARITHDLTIVPSWTDYEAKAGEKIIKMDPGMAFGTGTHPTTKMSLFALEQVLRGGETVIDVGTGSGVLSIASSLLGAKDIYAYDLDDVAVRVAQENIDMNPGTENIHVAAGDLLKGVQQEVDVIVANILADILIHLTDDAYRLVKDEGYLIMSGIISEKWDMVRESAEKAGFFLETHMVQGEWNACVFKKTDDISGVIGGEGHHHHHH | soluble
19 | MLQCYNCPNPTADCKTAVNCSSDFDACLITKAGLQVYNKCWKFEHCNFNDVTTRLRENELTYYCCKKDLCNFNEQLENC | soluble
